The source of these data is the supplement of paper PMC12764529.

± gives the half width of the 95% confidence interval.

The nature of data set [1]: folding stability dG unfold from trypsin proteolysis; higher = more stable. In a few lines:
(§1)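 Only designs with AlphaFold2 dimer inter-PAE above 15 were retained; each was a mini-protein under 80 residues with no cysteine, in a PA-tagged cDNA display construct. After digestion with trypsin and chymotrypsin and sequencing, K50 was inferred by Bayesian fitting of counts, and unfolding free energy was derived per protease or combined against a sequence-predicted unfolded-state K50 and a shared folded-state K50.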

The nature of data set [2]: folding stability dG unfold from chymotrypsin proteolysis; higher = more stable. The gist of the method: as §1
Data set [3] in a line: folding stability dG unfold (combined trypsin and chymotrypsin); higher = more stable. In a few lines: as §1

Regarding “SAGGSAGGSMTTSTEVVELSGGSSLTVEREYTVEEVKVDDKWETVTHEVVTTPDSTTVREIKPSAGGSAGGS [r12_128_JUSTAS]”, the “folding stability dG unfold” value stood at 0.233 ± 0.063 kcal/mol in data set [1], 0.621 ± 0.068 kcal/mol in data set [2] and 0.526 ± 0.19 kcal/mol in data set [3].

For the sequence “SAGGSAGGSMTVTITFAPDESLGPEKLEELLKKAGPDTTIVLSKYDPATGTTSTATIKVEPGSSAGGSAGGS [r12_913_JUSTAS]”, the figures for the “folding stability dG unfold” value in data set [1], in data set [2] and in data set [3] were 0.697 ± 0.046 kcal/mol, 1.25 ± 0.013 kcal/mol and 1.07 ± 0.07 kcal/mol, respectively.

With “SAGGSAGGSMTWTETVITLKGNGSETTTYKAKVTEDPSSDTVLVTLPDGTPLTIPKSQVTINSSAGGSAGGS [r12_256_JUSTAS]”, the “folding stability dG unfold” value in data set [1] is -0.131 ± 0.18 kcal/mol; in data set [2], 0.668 ± 0.14 kcal/mol; in data set [3], 0.399 ± 0.096 kcal/mol.

Turning to “SAGGSAGGSMVEGELPDAKVTVFFHPDGGALALVEFETETVLARIDVLPDDTLKITVIPAKDASAGGSAGGS [r12_669_TrMRF]”, the “folding stability dG unfold” value in data set [1] stood at 2.05 ± 0.05 kcal/mol; in data set [2], 2.252 ± 0.01 kcal/mol; in data set [3], 2.16 ± 0.072 kcal/mol.

Consider “SAGGSAGGSMVIRVTTKDGEEVELEIEGMSLEEIKALLPEGVKEVKIEKVEVEPVEVEEEEEESAGGSAGGS [r12_767_TrROS_Hall]”, for which the “folding stability dG unfold” value was determined as 1.31 ± 0.1 kcal/mol in data set [1], 1.99 ± 0.27 kcal/mol in data set [2] and 1.72 ± 0.21 kcal/mol in data set [3].

“SAGGSAGGSMVLRIKTEDGEEIEIELPEELKELSAEEIAELLGLDEVKVVEVEVVEPEEEEEESAGGSAGGS [r12_411_TrROS_Hall]”: the results for the “folding stability dG unfold” value in data set [1], in data set [2] and in data set [3] were 0.256 ± 0.043 kcal/mol, 2.01 ± 0.05 kcal/mol and 1.66 ± 0.19 kcal/mol, respectively.

“SAGGSAGGSMVRVTRLPDGTYRIEIELPGESLEREARGPEEVEALAEEIEKETGVPVEIETLESAGGSAGGS [r12_783_JUSTAS]”: the “folding stability dG unfold” value in data set [1] came to 1.1 ± 0.068 kcal/mol; in data set [2], 0.908 ± 0.096 kcal/mol; in data set [3] it was 0.945 ± 0.14 kcal/mol.

With “SAGGSAGGSMVYTPPEVLTPVREVTITVTTSSYSPSGGTPVTSTSTVPVLVYKDPSGRTAIVPPSAGGSAGG [r6_278_JUSTAS]”, the figures for the “folding stability dG unfold” value in data set [1], in data set [2] and in data set [3] were -0.0213 ± 0.072 kcal/mol, 0.195 ± 0.19 kcal/mol and 0.159 ± 0.11 kcal/mol, respectively.

Consider “SAGGSAGGSMYLIRVTTEDNIELTFLVSEDDIEAFEAFAKALAELFPVPVKVEIEPVEEGEEVSAGGSAGGS [r12_385_TrMRF]”, for which the “folding stability dG unfold” value came out at 3.2 ± 0.16 kcal/mol in data set [1], 3.74 ± 0.043 kcal/mol in data set [2] and 3.54 ± 0.086 kcal/mol in data set [3].

Take “SAGGSAGGSMYYVVVTRPGGRPEVIVVPTETLEEVEEVAARIAEALRELGIPEEELEIRVLPVSAGGSAGGS [r12_295_TrMRF]”: the “folding stability dG unfold” value is 2.4 ± 0.046 kcal/mol in data set [1], 1.679 ± 0.016 kcal/mol in data set [2] and 2.03 ± 0.091 kcal/mol in data set [3].

On to “SAGGSAGGSNDPPEIKIDYEYNPNNGMYTANITIPNGRKLKITFPGDDAEDAEEQAKNLIEKLSAGGSAGGS [r12_339_TrROS]”, for which the “folding stability dG unfold” value came out at 0.539 ± 0.089 kcal/mol in data set [1], 1.57 ± 0.091 kcal/mol in data set [2] and 1.28 ± 0.38 kcal/mol in data set [3].

In the case of “SAGGSAGGSNFRIIEFDIKLKIPVMKMEPDPDGKPKMEMQPVKIPIKVTIFVFGNGIFIMITFSAGGSAGGS [r20_58_TrROS]”, the “folding stability dG unfold” value in data set [1] is 3.42 ± 0.24 kcal/mol; in data set [2], 5.29 ± 0.16 kcal/mol; in data set [3], 5.11 ± 0.29 kcal/mol.

On to “SAGGSAGGSNGKKIEIDIFWPRPMAETIVKELWKGSNIKPIKIKVIPMPEDDPKYKEFMDKLKSAGGSAGGS [r12_649_TrROS]”, for which the “folding stability dG unfold” value came to 0.109 ± 0.079 kcal/mol in data set [1], 0.188 ± 0.12 kcal/mol in data set [2] and 0.247 ± 0.12 kcal/mol in data set [3].

As for “SAGGSAGGSNIKIPSLQIYPNPNGYYISIKIEHEHPDPDGKKHEVEMSFMIWVPPGESLEDLFSAGGSAGGS [r12_889_TrROS]”, the “folding stability dG unfold” value in data set [1] was 2.1 ± 0.078 kcal/mol; in data set [2] it was 2.43 ± 0.049 kcal/mol; in data set [3], 2.29 ± 0.12 kcal/mol.

In the case of “SAGGSAGGSNMPPGMEVEMEPIIEREIKNPNGRKLKIKIYVMKIRPPGGPPMFFIALDIQILDSAGGSAGGS [r12_544_TrROS]”, the “folding stability dG unfold” value is 3.48 ± 0.16 kcal/mol in data set [1], 5.03 ± 0.28 kcal/mol in data set [2] and 4.52 ± 0.22 kcal/mol in data set [3].

Turning to “SAGGSAGGSNRLVFRFGGYYYVVEIKPPNGKEETIMMPPDDIDDLPKNWKVEVEPIKPGQPIPSAGGSAGGS [r12_419_TrROS]”, the “folding stability dG unfold” value in data set [1] amounted to 1.09 ± 0.12 kcal/mol; in data set [2] it was 1.46 ± 0.23 kcal/mol; in data set [3], 1.18 ± 0.2 kcal/mol.

Regarding “SAGGSAGGSNYINVKIEIWDPPNGKEREITINIPVPPGDPDYLKEIVNELASNFPGYYVKVEISAGGSAGGS [r12_795_TrROS]”, the “folding stability dG unfold” value in data set [1] is 1.61 ± 0.11 kcal/mol; in data set [2], 1.61 ± 0.058 kcal/mol; in data set [3], 1.64 ± 0.23 kcal/mol.

Regarding “SAGGSAGGSNYVVRIKIRYPDPDGKPIYEHTIDIPVPDEEITADELRKQLKPPGYEITDIEVLSAGGSAGGS [r12_611_TrROS]”, the “folding stability dG unfold” value in data set [1] was 0.509 ± 0.028 kcal/mol; in data set [2], 0.314 ± 0.16 kcal/mol; in data set [3] it was 0.57 ± 0.12 kcal/mol.

“SAGGSAGGSPDNWITFIFISISYKWKITKWDPENGGWKIEIKDVSIEIEIIRLPADDADKLFKSAGGSAGGS [r12_723_TrROS]”: the figures for the “folding stability dG unfold” value in data set [1], in data set [2] and in data set [3] were 2.63 ± 0.079 kcal/mol, 4.34 ± 0.062 kcal/mol and 3.85 ± 0.13 kcal/mol, respectively.

Regarding “SAGGSAGGSPDVVVTVEKNEDGEETVTVLMSREDVERLAAALPDVKVEELPDGLVLLTVRVKPSAGGSAGGS [r20_231_TrROS_Hall]”, the results for the “folding stability dG unfold” value in data set [1], in data set [2] and in data set [3] were 0.51 ± 0.038 kcal/mol, 0.827 ± 0.07 kcal/mol and 0.728 ± 0.089 kcal/mol, respectively.

Consider “SAGGSAGGSPEAPADRKLVALLRSPDSDTVYLVEITPDGIVAYNANNEKTPVSPEYLVAVFDASAGGSAGGS [r20_35_TrMRF]”, for which the “folding stability dG unfold” value in data set [1] was 0.883 ± 0.012 kcal/mol; in data set [2] it was 1.09 ± 0.054 kcal/mol; in data set [3], 1.02 ± 0.036 kcal/mol.

Regarding “SAGGSAGGSPEAVVVQTPDGRWLVFLRGPDGSVRPIVVPAGRPEALREVAEELGLTVENLDPVSAGGSAGGS [r12_891_TrMRF]”, the “folding stability dG unfold” value was 1.83 ± 0.052 kcal/mol in data set [1], 2.1 ± 0.04 kcal/mol in data set [2] and 2 ± 0.065 kcal/mol in data set [3].

For the sequence “SAGGSAGGSPEEFEIKIVEPTPIEINPNGSVSLTFTVPNGWYLRIMIMRPPDGNPQPMIMIIPSAGGSAGGS [r20_240_TrROS]”, the “folding stability dG unfold” value in data set [1] is 2.86 ± 0.086 kcal/mol; in data set [2] it was 3.54 ± 0.062 kcal/mol; in data set [3], 3.22 ± 0.11 kcal/mol.

Take “SAGGSAGGSPIDITDIEVEQHEHPDGQQYHEVKIRLPDGRPIKIWMSPGSTPDQVLKQAKEFISAGGSAGGS [r12_1047_TrROS]”: the “folding stability dG unfold” value in data set [1] was -0.137 ± 0.12 kcal/mol; in data set [2], -0.0705 ± 0.26 kcal/mol; in data set [3] it was 0.0598 ± 0.17 kcal/mol.

Take “SAGGSAGGSPKIEIEQDPNGWWRVKIRPPDGKKRPINIPPGDPEKILDEAEENGWKIDEIEPWSAGGSAGGS [r12_891_TrROS]”: the “folding stability dG unfold” value in data set [1] was -0.045 ± 0.2 kcal/mol; in data set [2], 0.631 ± 0.14 kcal/mol; in data set [3], 0.404 ± 0.12 kcal/mol.

On to “SAGGSAGGSPKIELLDSRPRPDGSLVELLAIEAEDEIRLLVIVTHPDGVDIRFFEPEYPDLDLSAGGSAGGS [r12_315_TrMRF]”, for which the “folding stability dG unfold” value is 0.386 ± 0.15 kcal/mol in data set [1], 0.008 ± 0.18 kcal/mol in data set [2] and 0.279 ± 0.3 kcal/mol in data set [3].
